Experimental data reported in article PMC5471267, “Novel regulatory mechanism of serine biosynthesis associated with 3-phosphoglycerate dehydrogenase in Arabidopsis thaliana” (Scientific Reports, 2017).
Several values for one entry are separate records, joined by “and”; a condition that tells them apart may be missing. Equal entries are not always repeated.

Experiments:
[1] = biological target: T1, AtPGDH1 (Arabidopsis thaliana, UniProt O49485); assay: 3-PGA oxidation, NADH absorbance at […] nm; Hill fit; type: biochemical
T1 construct: gene PGDH1; mature enzyme, predicted chloroplast transit peptide removed; eXact tag cleaved (tag-free); E. coli BL21 CodonPlus(DE3)-RIL; homotetramer
T1 sequence (O49485 59-603 limits assumed): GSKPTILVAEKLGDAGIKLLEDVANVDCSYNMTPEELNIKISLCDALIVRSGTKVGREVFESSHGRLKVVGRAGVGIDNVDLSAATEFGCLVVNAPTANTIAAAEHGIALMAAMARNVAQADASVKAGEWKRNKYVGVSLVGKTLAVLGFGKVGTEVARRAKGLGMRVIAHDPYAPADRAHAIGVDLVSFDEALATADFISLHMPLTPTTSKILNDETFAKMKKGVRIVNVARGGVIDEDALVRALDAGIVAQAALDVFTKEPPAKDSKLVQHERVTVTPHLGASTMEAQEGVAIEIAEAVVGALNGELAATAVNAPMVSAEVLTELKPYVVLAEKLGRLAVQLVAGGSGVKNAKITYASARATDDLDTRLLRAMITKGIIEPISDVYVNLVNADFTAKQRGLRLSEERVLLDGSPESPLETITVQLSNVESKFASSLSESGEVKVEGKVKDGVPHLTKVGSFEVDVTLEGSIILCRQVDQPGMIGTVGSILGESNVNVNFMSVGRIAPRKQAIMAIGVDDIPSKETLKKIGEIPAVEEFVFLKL

[2] = biological target: T2, AtPGDH3 (Arabidopsis thaliana, UniProt Q9LT69); assay: 3-PGA oxidation, NADH absorbance at […] nm; Hill fit; type: biochemical
T2 construct: gene PGDH3; mature enzyme, predicted chloroplast transit peptide removed; eXact tag cleaved (tag-free); E. coli BL21 CodonPlus(DE3)-RIL; homotetramer
T2 sequence (Q9LT69 44-588 limits assumed): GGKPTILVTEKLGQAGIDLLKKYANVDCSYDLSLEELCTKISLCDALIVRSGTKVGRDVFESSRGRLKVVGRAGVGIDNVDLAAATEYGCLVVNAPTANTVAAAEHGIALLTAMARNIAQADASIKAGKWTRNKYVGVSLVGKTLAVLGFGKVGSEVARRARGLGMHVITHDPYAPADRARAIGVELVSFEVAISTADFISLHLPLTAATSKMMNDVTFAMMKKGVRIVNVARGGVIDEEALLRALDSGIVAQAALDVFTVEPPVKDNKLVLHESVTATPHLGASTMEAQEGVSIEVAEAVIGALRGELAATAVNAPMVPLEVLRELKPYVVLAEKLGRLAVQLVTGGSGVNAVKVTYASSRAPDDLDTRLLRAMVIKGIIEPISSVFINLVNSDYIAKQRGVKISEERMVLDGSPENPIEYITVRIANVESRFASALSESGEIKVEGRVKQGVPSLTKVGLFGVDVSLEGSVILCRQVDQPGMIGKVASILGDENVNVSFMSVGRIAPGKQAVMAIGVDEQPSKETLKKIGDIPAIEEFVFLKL

[3] = system: T3, AtPGDH-N2/C1; assay: 3-PGA oxidation, NADH absorbance at […] nm; Hill fit; type: biochemical, Arabidopsis thaliana; settings: inhibitor, cooperative; 10 mM 3-PGA, 1 mM NAD+, 0.1 M NaCl, pH 9.0, 25 °C
T3 construct: gene PGDH2; one fused polypeptide: N-terminal half (catalytic domain) of AtPGDH2 + C-terminal half (ASB and ACT domains) of AtPGDH1; tag-free, E. coli; homotetramer

[4] = biological target: AtPGDH-N2/C1: chimera of the N-terminal half of AtPGDH2 and the C-terminal half of AtPGDH1 (A. thaliana); assay: SEC; HiLoad 26/600 Superdex 200 preparation grade column, flow rate 1 mL/min, 100 mM sodium phosphate buffer (pH 9.0); native molecular weight estimated from a standard curve of marker proteins; oligomer of the protein with itself
[5] = substrate: NC(=O)c1ccc[n+]([C@@H]2O[C@H](COP(=O)(O)OP(=O)(O)OC[C@H]3O[C@@H](n4cnc5c(N)ncnc54)[C@H](O)[C@@H]3O)[C@@H](O)[C@H]2O)c1; assay: purified protein; type: biochemical, Arabidopsis thaliana; settings: 10 mM 3-PGA, 0.1 M NaCl, pH 9.0, 25 °C, varied: cofactor
[6] = substrate: O=C(O)[C@H](O)COP(=O)(O)O; assay: purified protein; type: biochemical, Arabidopsis thaliana; settings: 1 mM NAD+, 0.1 M NaCl, pH 9.0, 25 °C
[7] = biological target: the molecule itself; assay: SEC; HiLoad 26/600 Superdex 200 preparation grade column, flow rate 1 mL/min, 100 mM sodium phosphate buffer (pH 9.0); native molecular weight estimated from a standard curve of marker proteins; oligomer of the protein with itself

Molecule: N[C@@H](CCS)C(=O)O [L-homocysteine]
- EC50 [1]: 23 µM
- EC50 [2]: 69 µM

Molecule: N[C@@H](CCO)C(=O)O [L-homoserine]
- EC50 [1]: 3000 ± 300 µM
- EC50 [2]: 9200 ± 300 µM

Molecule: CSCC[C@H](N)C(=O)O [L-methionine]
- EC50 [1]: 670 µM
- EC50 [2]: 2500 ± 100 µM

Molecule: N[C@@H](CO)C(=O)O [L-serine]
- EC50 [1]: 6600 µM
- EC50 [2]: 1300 µM
- EC50 [3]: 2700 ± 100 µM

Molecule: CC(C)[C@H](N)C(=O)O [L-valine]
- EC50 [1]: 7100 ± 200 µM
- EC50 [2]: 2300 ± 200 µM

Molecule: AtPGDH-N2/C1: chimera of the N-terminal half of AtPGDH2 and the C-terminal half of AtPGDH1 (enzyme)
- stoichiometry N [4]: 4

B1: AtPGDH2 (Arabidopsis thaliana) (protein)
chain: LPKPRILVTEKLGEAGVNLLREFGDVDCSYDLSPEDLKKKVAESDALIVRSGTKVTREVFEAAKGRLKVVGRAGVGIDNVDLQAATEHGCLVVNAPTANTVAAAEHGIALLASMARNVAQADASIKAGKWERSKYVGVSLVGKTLAVMGFGKVGTEVARRAKGLGMTVISHDPYAPADRARALGVDLVSFDQAISTADFVSLHMPLTPATKKVFNDETFSKMKKGVRLINVARGGVIDEDALVRALDAGIVAQAALDVFCEEPPSKDSRLIQHENVTVTPHLGASTKEAQEGVAIEIAEAVAGALKGELSATAVNAPMVAPEVLSELTPYIVLAEKLGRLAVQLASGGKGVQSIRVVYRSARDRDDLDTRLLRAMITKGIIEPISDSYVNLVNADFIAKQKGLRISEERMVVDSSPEYPVDSIQVQILNVESNFAGAVSDAGDISIEGKVKYGVPHLTCVGSFGVDVSLEGNLILCRQVDQPGMIGQVGNILGEQNVNVNFMSVGRTVLRKQAIMAIGVDEEPDNKTLERIGGVSAIEEFVFLKL
notes: mature enzyme, predicted chloroplast transit peptide removed; eXact tag cleaved (tag-free); E. coli BL21 CodonPlus(DE3)-RIL; equilibrium of homooctamers and homotetramers
- Km [5]: 123 ± 7 µM
- kcat [5]: 16 s⁻¹
- Km [6]: 1030 ± 70 µM
- kcat [6]: 16 s⁻¹

B2: AtPGDH3 (Arabidopsis thaliana) (protein)
chain: GGKPTILVTEKLGQAGIDLLKKYANVDCSYDLSLEELCTKISLCDALIVRSGTKVGRDVFESSRGRLKVVGRAGVGIDNVDLAAATEYGCLVVNAPTANTVAAAEHGIALLTAMARNIAQADASIKAGKWTRNKYVGVSLVGKTLAVLGFGKVGSEVARRARGLGMHVITHDPYAPADRARAIGVELVSFEVAISTADFISLHLPLTAATSKMMNDVTFAMMKKGVRIVNVARGGVIDEEALLRALDSGIVAQAALDVFTVEPPVKDNKLVLHESVTATPHLGASTMEAQEGVSIEVAEAVIGALRGELAATAVNAPMVPLEVLRELKPYVVLAEKLGRLAVQLVTGGSGVNAVKVTYASSRAPDDLDTRLLRAMVIKGIIEPISSVFINLVNSDYIAKQRGVKISEERMVLDGSPENPIEYITVRIANVESRFASALSESGEIKVEGRVKQGVPSLTKVGLFGVDVSLEGSVILCRQVDQPGMIGKVASILGDENVNVSFMSVGRIAPGKQAVMAIGVDEQPSKETLKKIGDIPAIEEFVFLKL
notes: mature enzyme, predicted chloroplast transit peptide removed; eXact tag cleaved (tag-free); E. coli BL21 CodonPlus(DE3)-RIL; homotetramer
- Km [6]: 770 ± 90 µM
- kcat [6]: 17 s⁻¹

B3: Arabidopsis thaliana 3-phosphoglycerate dehydrogenase 3 (AtPGDH3), recombinant, without the predicted transit peptide (enzyme, A. thaliana, UniProt Q9LT69 39-588, looked up)
chain: SSSGGGGKPTILVTEKLGQAGIDLLKKYANVDCSYDLSLEELCTKISLCDALIVRSGTKVGRDVFESSRGRLKVVGRAGVGIDNVDLAAATEYGCLVVNAPTANTVAAAEHGIALLTAMARNIAQADASIKAGKWTRNKYVGVSLVGKTLAVLGFGKVGSEVARRARGLGMHVITHDPYAPADRARAIGVELVSFEVAISTADFISLHLPLTAATSKMMNDVTFAMMKKGVRIVNVARGGVIDEEALLRALDSGIVAQAALDVFTVEPPVKDNKLVLHESVTATPHLGASTMEAQEGVSIEVAEAVIGALRGELAATAVNAPMVPLEVLRELKPYVVLAEKLGRLAVQLVTGGSGVNAVKVTYASSRAPDDLDTRLLRAMVIKGIIEPISSVFINLVNSDYIAKQRGVKISEERMVLDGSPENPIEYITVRIANVESRFASALSESGEIKVEGRVKQGVPSLTKVGLFGVDVSLEGSVILCRQVDQPGMIGKVASILGDENVNVSFMSVGRIAPGKQAVMAIGVDEQPSKETLKKIGDIPAIEEFVFLKL
notes: region that corresponds with the mature enzyme, the chloroplast transit peptide having been predicted by comparison with MtPGDH; theoretical molecular weight 57.9 kDa; also called At3g19480
- stoichiometry N [7]: 4

B4: Arabidopsis thaliana 3-phosphoglycerate dehydrogenase 1 (AtPGDH1), recombinant, without the predicted transit peptide (enzyme, A. thaliana, UniProt O49485 55-603, looked up)
chain: STGDGSKPTILVAEKLGDAGIKLLEDVANVDCSYNMTPEELNIKISLCDALIVRSGTKVGREVFESSHGRLKVVGRAGVGIDNVDLSAATEFGCLVVNAPTANTIAAAEHGIALMAAMARNVAQADASVKAGEWKRNKYVGVSLVGKTLAVLGFGKVGTEVARRAKGLGMRVIAHDPYAPADRAHAIGVDLVSFDEALATADFISLHMPLTPTTSKILNDETFAKMKKGVRIVNVARGGVIDEDALVRALDAGIVAQAALDVFTKEPPAKDSKLVQHERVTVTPHLGASTMEAQEGVAIEIAEAVVGALNGELAATAVNAPMVSAEVLTELKPYVVLAEKLGRLAVQLVAGGSGVKNAKITYASARATDDLDTRLLRAMITKGIIEPISDVYVNLVNADFTAKQRGLRLSEERVLLDGSPESPLETITVQLSNVESKFASSLSESGEVKVEGKVKDGVPHLTKVGSFEVDVTLEGSIILCRQVDQPGMIGTVGSILGESNVNVNFMSVGRIAPRKQAIMAIGVDDIPSKETLKKIGEIPAVEEFVFLKL
notes: AtPGDH1 (At4g34200), A. thaliana; region that corresponds with the mature enzyme, the chloroplast transit peptide having been predicted by comparison with MtPGDH; theoretical molecular weight 57.5 kDa; The start of the 'mature' region is a prediction of the authors from an alignment with MtPGDH; also called At4g34200
- stoichiometry N [7]: 4

B5: Arabidopsis thaliana 3-phosphoglycerate dehydrogenase 2 (AtPGDH2), recombinant, without the predicted transit peptide (enzyme, A. thaliana, UniProt O04130-1 50-624, looked up)
chain: AALKTVEQTTLTEDNRFSTVGSDSDEYNPTLPKPRILVTEKLGEAGVNLLREFGDVDCSYDLSPEDLKKKVAESDALIVRSGTKVTREVFEAAKGRLKVVGRAGVGIDNVDLQAATEHGCLVVNAPTANTVAAAEHGIALLASMARNVAQADASIKAGKWERSKYVGVSLVGKTLAVMGFGKVGTEVARRAKGLGMTVISHDPYAPADRARALGVDLVSFDQAISTADFVSLHMPLTPATKKVFNDETFSKMKKGVRLINVARGGVIDEDALVRALDAGIVAQAALDVFCEEPPSKDSRLIQHENVTVTPHLGASTKEAQEGVAIEIAEAVAGALKGELSATAVNAPMVAPEVLSELTPYIVLAEKLGRLAVQLASGGKGVQSIRVVYRSARDRDDLDTRLLRAMITKGIIEPISDSYVNLVNADFIAKQKGLRISEERMVVDSSPEYPVDSIQVQILNVESNFAGAVSDAGDISIEGKVKYGVPHLTCVGSFGVDVSLEGNLILCRQVDQPGMIGQVGNILGEQNVNVNFMSVGRTVLRKQAIMAIGVDEEPDNKTLERIGGVSAIEEFVFLKL
notes: AtPGDH2 (At1g17745), A. thaliana; region that corresponds with the mature enzyme, the chloroplast transit peptide having been predicted by comparison with MtPGDH; theoretical molecular weight 57.6 kDa; Found as an equilibrium of homooctamers and homotetramers; also called At1g17745
- stoichiometry N [7]: 8 and 4

B6: AtPGDH1 (Arabidopsis thaliana) (protein)
chain: GSKPTILVAEKLGDAGIKLLEDVANVDCSYNMTPEELNIKISLCDALIVRSGTKVGREVFESSHGRLKVVGRAGVGIDNVDLSAATEFGCLVVNAPTANTIAAAEHGIALMAAMARNVAQADASVKAGEWKRNKYVGVSLVGKTLAVLGFGKVGTEVARRAKGLGMRVIAHDPYAPADRAHAIGVDLVSFDEALATADFISLHMPLTPTTSKILNDETFAKMKKGVRIVNVARGGVIDEDALVRALDAGIVAQAALDVFTKEPPAKDSKLVQHERVTVTPHLGASTMEAQEGVAIEIAEAVVGALNGELAATAVNAPMVSAEVLTELKPYVVLAEKLGRLAVQLVAGGSGVKNAKITYASARATDDLDTRLLRAMITKGIIEPISDVYVNLVNADFTAKQRGLRLSEERVLLDGSPESPLETITVQLSNVESKFASSLSESGEVKVEGKVKDGVPHLTKVGSFEVDVTLEGSIILCRQVDQPGMIGTVGSILGESNVNVNFMSVGRIAPRKQAIMAIGVDDIPSKETLKKIGEIPAVEEFVFLKL
notes: as for B2
- Km [5]: 50 ± 2 µM
- kcat [5]: 15 s⁻¹
- Km [6]: 500 ± 50 µM
- kcat [6]: 15 s⁻¹
